Numbering of substitutions follows the chain as printed. Like-named read-outs stand apart in the source and are kept apart here.

What all share (assay): cell-based or functional assay
Assay [1] deals with Mpl on the BaF3 cells of FIG. 42 (human or monkey not stated).
For assay [2], the target named is T1, human Mpl (on BaF3-human Mpl cells) (human, UniProt P40238 26-635).
T1 sequence (looked up): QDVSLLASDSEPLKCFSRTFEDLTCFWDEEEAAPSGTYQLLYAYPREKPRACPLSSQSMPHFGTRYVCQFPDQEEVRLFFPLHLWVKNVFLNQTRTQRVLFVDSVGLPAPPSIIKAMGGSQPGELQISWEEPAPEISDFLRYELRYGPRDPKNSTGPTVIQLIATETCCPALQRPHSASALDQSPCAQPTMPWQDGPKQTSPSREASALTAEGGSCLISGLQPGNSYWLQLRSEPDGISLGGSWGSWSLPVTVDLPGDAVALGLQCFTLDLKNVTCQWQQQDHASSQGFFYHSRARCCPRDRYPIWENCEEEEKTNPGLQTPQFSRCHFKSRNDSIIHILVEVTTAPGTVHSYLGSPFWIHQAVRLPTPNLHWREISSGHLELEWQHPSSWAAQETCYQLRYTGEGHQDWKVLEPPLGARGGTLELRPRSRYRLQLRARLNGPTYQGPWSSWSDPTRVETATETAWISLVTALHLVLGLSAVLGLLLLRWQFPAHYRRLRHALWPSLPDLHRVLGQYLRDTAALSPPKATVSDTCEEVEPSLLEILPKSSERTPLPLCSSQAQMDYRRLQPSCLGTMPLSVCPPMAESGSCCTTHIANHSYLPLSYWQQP

Assay [3] addresses monkey Mpl (on BaF3-monkey Mpl cells) (monkey).
The target of assay [4] is T1, human Mpl (on BaF3-human Mpl cells). The source holds these as a separate data set.
Assay [5] concerns the target monkey Mpl (on BaF3-monkey Mpl cells) (monkey). The source holds these as a separate data set.
Assay [6] deals with T1, human Mpl (on BaF3-human Mpl cells). The source holds these as a separate data set.
The target in assay [7] is monkey Mpl (on BaF3-monkey Mpl cells) (monkey). This is another data set of the same source.

B1: VB22B sc(Fv)2 peak 2 (single chain diabody-type conformational isomer) (scFv)
chain: QVQLQQSGPELVKPGASVKISCKASGYAFTNSWMNWVKQRPGKGLEWIGRIYPGDGETIYNGKFRVKATLTADKSSSTAYMDISSLTSEDSAVYFCARGYDDYSFAYWGQGTLVTVSAGGGGSGGGGSGGGGSDIVMTQAAPSIPVTPGESVSISCRSSKSLLHSNGNTYLYWFLQRPGQSPQLLIYRMSNLASGVPDRFSGSGSGTAFTLRISRVEAEDVGVYYCMQHIEYPFTFGSGTKLEIKGGGGSGGGGSGGGGSQVQLQQSGPELVKPGASVKISCKASGYAFTNSWMNWVKQRPGKGLEWIGRIYPGDGETIYNGKFRVKATLTADKSSSTAYMDISSLTSEDSAVYFCARGYDDYSFAYWGQGTLVTVSAGGGGSGGGGSGGGGSDIVMTQAAPSIPVTPGESVSISCRSSKSLLHSNGNTYLYWFLQRPGQSPQLLIYRMSNLASGVPDRFSGSGSGTAFTLRISRVEAEDVGVYYCMQHIEYPFTFGSGTKLEIK
For orientation: EC50 (read off the curve) means the concentration that produces a half-maximal response. Turning to B1, the “EC50 (read off the curve)” value in assay [1] was around 0.6 ng/mL. Moreover, in assay [2], the “EC50 (read off the curve) [A) BaF-human Mpl]” value is around 0.008 nM. Moreover, the “EC50 (read off the curve) [B) BaF-monkey Mpl]” value in assay [3] is around 0.02 nM.

B2: mouse anti-human Mpl antibody mVB22B sc(Fv)2 (before separation of the conformational isomers) (scFv)
chain: B1 chain
For B2, in assay [2], the “EC50 (read off the curve) [A) BaF-human Mpl]” value is around 0.01 nM. For the same molecule, the “EC50 (read off the curve) [B) BaF-monkey Mpl]” value in assay [3] was around 0.03 nM.

B3: humanized anti-human Mpl antibody hVB22B u2-wz4 sc(Fv)2 (bulk, before separation of the conformational isomers) (scFv)
chain: QVQLVQSGPEVKKPGASVKVSCKASGYTFTNSWMNWVRQRPGKGLEWIGRIYPGDGETIYNGKFRVRVTITADESTSTAYMQLSSLRSEDTAVYYCARGYDDYSFAYWGQGTTVTVSSGGGGSGGGGSGGGGSDIVMTQSPLSLPVTPGEPASISCRSSKSLLHSNGNTYLYWFLQKPGQSPQLLIYRMSNLASGVPDRFSGSGSGTDFTLKISRVEAEDVGVYYCMQHIEYPFTFGQGTKLEIKGGGGSGGGGSGGGGSQVQLVQSGPEVKKPGASVKVSCKASGYTFTNSWMNWVRQRPGKGLEWIGRIYPGDGETIYNGKFRVRVTITADESTSTAYMQLSSLRSEDTAVYYCARGYDDYSFAYWGQGTTVTVSSGGGGSGGGGSGGGGSDIVMTQSPLSLPVTPGEPASISCRSSKSLLHSNGNTYLYWFLQKPGQSPQLLIYRMSNLASGVPDRFSGSGSGTDFTLKISRVEAEDVGVYYCMQHIEYPFTFGQGTKLEIK
In the case of B3, the “EC50 (read off the curve) [A) BaF-human Mpl]” value is around 0.06 nM in assay [4] and around 0.04 nM in assay [6]. In addition, the “EC50 (read off the curve) [B) BaF-monkey Mpl]” value was around 0.02 nM in assay [5] and around 0.04 nM in assay [7].

B4: hVB22B u2-wz4 sc(Fv)2 peak 2 (single chain diabody-type conformational isomer) (scFv)
chain: B3 chain
On to B4, for which the “EC50 (read off the curve) [A) BaF-human Mpl]” value in assay [4] was around 0.05 nM; in assay [6], around 0.04 nM. Moreover, the “EC50 (read off the curve) [B) BaF-monkey Mpl]” value in assay [5] is around 0.02 nM; in assay [7] it was around 0.03 nM.

B5: hVB22B u2-wz4 (v3) sc(Fv)2 (scFv)
chain: B3 chain with Q39E, Q176K, Q299K, Q436E
On to B5, for which the “EC50 (read off the curve) [A) BaF-human Mpl]” value in assay [4] is around 0.1 nM.

B6: hVB22B u2-wz4 (v1) sc(Fv)2 (scFv)
chain: B3 chain with Q39E, Q176E, Q299K, Q436K
Regarding B6, in assay [4], the “EC50 (read off the curve) [A) BaF-human Mpl]” value was around 0.04 nM. For the same molecule, the “EC50 (read off the curve) [B) BaF-monkey Mpl]” value in assay [5] is around 0.04 nM.

Values taken from US20090214535A1 (Chugai, published 2009).
